T1: HCV Core1-169 (HCV-1, UniProt P26664 1-169)
T1 construct: also called recombinant HCV core antigen
T1 sequence: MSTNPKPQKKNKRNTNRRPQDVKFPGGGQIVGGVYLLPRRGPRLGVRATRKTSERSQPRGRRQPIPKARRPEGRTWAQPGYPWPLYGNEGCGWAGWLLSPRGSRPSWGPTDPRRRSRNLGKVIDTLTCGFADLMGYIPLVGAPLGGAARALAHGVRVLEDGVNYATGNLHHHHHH


Key:
HCV Core1-169 [1] = molecular target: T1, HCV Core1-169; assay: EIA, core1-169 coated on plate
HCV Core1-169 [2] = molecular target: T1, HCV Core1-169; assay: EIA, core1-169 captured by mAb 14-153-229
Also: test concentration or dose not given here.

Binder	OD (A492) (HCV Core1-169 [1]) [OD]	OD (A492) (HCV Core1-169 [2]) [OD]
HCV 208B-251 (antibody, V domains shown) VH: QLQQSGPVLVKPGASVKISCKTSGYTFTENAMHWVKQSHGKSLEWIGGVNPNNGDTIYNQKFKGKATLTVDKSSSTAFMELRSLTSEESPVYFCVRRELDFFDYWGQGTSVTVSS VL: DIVLTQSPASLAVSLGKKATISCRASQSVSTSRYSYMHWYQQKPGHPPKLLIKYASNLESGVPARFSGSGSGTDFTLNIHPVAEEDTAAYYCQHSWEFPFTFGSGTKLEIKR	0.79	1.39
HCV 208A-830 (antibody, V domains shown) VH: EVRLQQPGPEVEKPGASVKISCKTSGYTFTEYAIHWVKQSHGESLEWIGGINPSNGDPIYNQIFKDKATLTVDRSSNTAYMGLRSLTVGDSGVYFCVRRQLDYFDFWGQGASLTVSS VL: DIVLTQSPASLAVSLGQRATISCRSSQSVSTSRYSYLHWYQQKPGQPPKLLIKYASNLESGVPARFSGSGSGTDFTLNIHPVGEEDPATYYCQHSWEFPFTFGSGTKLEIKR	1.16	2.09
HCV 208B-556 (antibody, V domains shown) VH: QLQQSGPVLVKPGASVMISCKTSGYTFTENAMHWVKQSHGKSLEWIGGVNPNNGDTIFNQKFKGKATLTVDKSSSTAFMEFRSLTSEESTVYYCVRRELDFFDYWGQGTSVTVSS VL: DIVLTQSPASLAVSLGQRATISCRASQSVSTSRYSYMHWYQQKPGQPPKLLIKYASNLESGVPARFSGSGSGTDFTLNIHPVAEEDTATYYCQHSWEFPFTFGSGTKLEIKR	0.74	1.35
HCV 208B-327 (antibody, V domains shown) VH: EVQLVESGGGLVKPGGSLKLSCAASGFTFSDSYMYWVRQTPDQRLEWVATISDGGSYTFYPDSVKGRFTISRDNAQNNLYLQMSSLKSEDTAMYYCASPHAGYFGWFAYWGRGTLVTVSA VL: DIVMTQAAFSNPVTPGTSVSISCRSSKSLLHSNGITYLYWYLQKPGQSPQLLIYQMSKIASGVPDRFRSSGSGTDFTLRISRVEAADVGVYYCAQNLELPWTFGGGTKLEIKR	0.14	0.11
HCV 208B-1024 (antibody, V domains shown) VH: EVQLVESGGDLVKPGGSLKLSCAASGFTFSNYGMSWVRQTPDKRLEWVATISSGGSYSYYPDSVKGRFTISRDNAKNILYLQMSSLKSEDTAMYYCASLYYGYGDYWGQGTAFTVSS VL: DVLMTQTPLSLPVSLGDQASISCRSSQSIVHSNGNTYLEWYLQKLGQSPKLLIYRVSNRFSGVPDRFSGSGSGTDFTLKISRVEAEDLGVYYCFQGSHVPWTFGGGTKLEIKR	0.6	0.31
HCV 208A-352 (antibody, V domains shown) VH: QGQMQQSGAELVKPGASVKLSCKTSGFTFSSSFISWLKQKPGQSLEWIAWIYAGTGNTNYNQKFTDKAQLTVDTSSSTAYMQFSSLTTEDSAIYYCAISGTGFTYWGQGTLVTVSA VL: DVLMAQTPLSLPVTLGDQASISCRSSQSLVHSNGNTYLEWFLQKPGQSPKLLIYNVSNRFSGVPDRFSGSGSGTDFTLKISRVEAEDLGVYYCFQGSHVPLTFGSGTKLEIKR	0.1	0.53
HCV 208B-281 (antibody, V domains shown) VH: QGQLQQSGAELVKPGASVKLSCKTSGFTFSSSYISWLKQRPGQSLEWIAWIYAGTGGTNYNQKFTDKAQLTVDTSSSTAYMQFSSLTTEDSAIYYCAISGTGFIYWGQGTLVTVSA VL: DVLMTQTPLSLPVSLGDQASISCRSSQSLVHNNGNTYLEWFLQKPGQSPKLLIYKVSNRFSGVPDRFSGSGSGTDFTLKISRVEAEDLGVYYCFQGSHVPFTFGSGTKLEIKR	0.09	0.11
HCV 208B-189 (antibody, V domains shown) VH: QVHLQQSGAELAKPGASVQMSCKASGYTFTANKMHWARQRPRQGLEWIGYIDPASGYTEYNQKIKDRATLTADKSSSTAYMQLSSLTSEDSAVYYCTNFAYWGQGTLVTVST VL: not shown	0.49	1.81
HCV 208B-178 (antibody, V domains shown) VH: DVKLVESGGGLVKLGGSLKLSCAASGFTFSSYYMSWVRQTPEKRLELVAAINSNGGSTYYPDTVKGRFTISRDNAKNTLYLQMSSLKSEDTALYYCARHGGLGRRDWYFDVWGAGTTVTVSS VL: DIVLTQSPASLAVSLGQRATISCRASESVDNYGISFMHWYQQKPGQPPKLLIYRASNLESGIPARFSGSGSRTDFTLTINPVETDDVATYYCQQSNKDPFTFGSGAKLEIKR	0.89	1.09
HCV 208B-408 (antibody, V domains shown) VH: EVKLVESGGGLVQPGGSLRLSCASSGFTFTDYYMSWVRQPPGKALEWLGFIRNKAYGYTTEFSASVNGRFTISRDDSQSVPYLQMNTLRAEDSATYYCARVLYYDYGGFAYWGQGTLVTVST VL: DIQMTQSPASLSASVGETVTITCRASGNIHTYLAWYQQKQGKSPQLLVYNANTLADGVPSRFSGSGSGTQFSLKINSLQPDDFGSYYCQHFWSAPWTFGGGTQLEIKR	0.09	0.09
HCV 208B-517 (antibody, V domains shown) VH: QVQLKQSGPGLVQPSQSLSITCTVSGFSLITHGVHWVRQSPGKGLEWLGVIWSGGSTDYNAAFISRLSISKDTSKSQVFLKMSSLQADDTAIYYCARNGGATAFDYWGQGTTLTVSS VL: DIVMTQSPATLSVTPGDRVSLSCRASQSISDYLHWYQQKSHESPRLLIKYASQSISGIPSRFRGSGSGSHFTLSINSVEPEDVGVYYCQNGHSFPWTFGGGTKLEIKR	0.79	0.97
HCV 208B-1096 (antibody, V domains shown) VH: QVQLQQSGAGLAKPGASVKMSCKASGYTFTANKMHWAKQRPGQGLEWIGYIDPSSGYTEYNHKIQYKATLTADTSSSTAYMQLSTLTFEDSAVYYCTNFAYWGQGTLVTVSA VL: DIVMTQTPLTLSVTIGQPASISCKSSQSLLFTNGKTYLNWFLQRPGQSPKRLIYLLSKLDSGVPDRFSGSGSGTDFTLKISRVEAEDLGVYYCLQSTYFPLTFGAGTKLELKR	0.49	1.75
HCV 208B-547 (antibody, V domains shown) VH: QVQLQQSGAELAKPGASVKMSCKASGYTFTSNKMHWAKQRPGQGLEWIGYIDPSSGYTEYNQKIKDKATLTADKSSSTAYMQLSSLTSEDSAVYYCTNFAYWGQGTLVTVSA VL: EVVLTQSPAITAASLGQKVTITCRASSSVSYMHWYRQKSGTSPQPWIYEISTLASGVPTRFRASGSGTSYSLTISSMEAEDAAIYYCQQWNYPLTFGAGTKLELKR	0.46	1.62
HCV 208B-395 (antibody, V domains shown) VH: QVQLQQSGAGLAKPGASVKMSCKASGYTFTANKMHWTKQRPGQGLEWIGYIDPSSGYTQYNHKIQDKATLTADTSSSTAYMQLSSLTFEDSAVYYCTNFAYWGQGTLVTVSA VL: DIVLTQSPATLSVTPGDRVSLSCRASQRIYNYLHWYQQKSHESPRLLIKYASQSISGIPSRFSGSGSGTDFILTINSVETEDFGMYFCQQSNSWPLTFGAGTKLELRR	0.5	1.95
HCV 208B-589 (antibody, V domains shown) VH: QVQLQQSGAGLAKPGASVKMSCKASGYTFTANKMHWAKQRPGQGLEWIGYIDPSSGYTEYNHKIQDKATLTADTSSSTAYMQLSSLTFEDSAVYYCTNFAYWGQGTLVTVSA VL: DIVMTQTPLTLSVTIGQPASISCKSSQSLLFTNGKTYLNWFLQRPGQSPKRLIYLLSKLDSGVPDRFSGSGSGTDFTLKISRVEAEDLGVYYCLQSTYFPLTFGAGTKLELKR	0.68	1.29
HCV 208B-515 (antibody, V domains shown) VH: QVQLQQPGAELVKPGASLKLSCRASGYTFTSYWIHWVKQRPGQGLEWIGEIDPSDSYTNYNQKFKGKATLTVDKSSRAAYMQLSSLTSEDSAVYYCARHYYGVFDSWGQGTKLTVSS VL: QIVFTQYPAIMSASLGERVTMTCTASSSVTSSYLHWFQQKPGSSPKLWIYSTSNPGSGVPARFSGRGSGTSYSLSISSMEAEDAATYYCLQFHRSPWTFGGGTKLEIRR	0.06	0.08
HCV 208A-1064 (antibody, V domains shown) VH: EVQLQQSGPELVKPGASVKISCKTSGYTFTEYAMHWMKQSHGKSLEWIGGINPTNGDTIYNQKFKDKAKLTVDRSSSTAYMELRSLTSDDSALFYCARRELDYFASWGQGTTLTVSS VL: DIVLTQSPASLIVSLGQTATISCRASQSVSTSRFSYLHWIQQKPGQPPKLLIKYASNLESGVPVRFSGSGSGTDFTLNIHPVEEEDTATYFCQHSWEFPFTFGSGTKLKIKR	0.94	1.57
HCV 208A-293 (antibody, V domains shown) VH: EVQLQQSGPELVKPGASVKISCKASGFTFTEYAMHWMKQSHGKSLEWIGGINPTNGDAIYNQKFKDKAKLTVDRSSSTAYMELRSLTSDDSALFYCARRELDYFPSWGQGTTLTVSS VL: DIVLTQSPASLIVSLGQRATISCRASQSVSTSRFSYVHWIQQKPGQPPKLLIKYASNLESGVPVRFSGSGSGTDFILNIHPVEEEDTATYFCQHSWEFPFTFGSGTKLEIKR	1.41	2.31
HCV 208B-1094 (antibody, V domains shown) VH: EVQLQQSGPELVKPGASVKISCKTSGYTFTEYAMHWMKQSHGKSLEWIGGINPTNGDTIYNQRFKDKAKLTVDRSSSTAYMELRSLTSDDSALFYCARRELDYFASWGQGTTLTVSS VL: DIVLTQSPASLIVSLGQTATISCRASQSLSTSRFSYVHWIQQKPGQPPKLLIKYASNLESGVPVRFSGSGSGTDFTLNIHPVEEEDTATYFCQHSWEFPFTFGSGTKLKIKR	0.9	1.51
HCV 208A-877 (antibody, V domains shown) VH: QLQQSGPELVKPGASVKISCKTSGYTFTENAMHWVKQSRGKSLEWIGGVNPNNGDTVYTQKFKGKATLTVAKSSSTAYMELRTMTCEESTVYYCASREPDFFDYWGQGSSVTVSS VL: QIVLTQSPAIMSVSPGEKVSMTCSASSSVTYMHWYQQKSGTSPKRWIYDTSELASGVPARFSGSGSGTTYSLTISSMEAEDAATYYCQQWSNKPLTFGAGTKLELKR	0.9	1.25
